EGFR-Wt mean, Wt/L858R and EGFR-L858R mean data for eight molecules are collected here from patent publication US9958461B2, “Detection of protein to protein interactions” (THE GOVERNING COUNCIL OF THE UNIVERSITY OF TORONTO, priority 2013, dated 2018).

First the molecules themselves.
B1: GRB10 (protein, UniProt Q13322 1-594, looked up)
Growth factor receptor-bound …: MALAGCPDSFLHHPYYQDKVEQTPRSQQDPAGPGLPAQSDRLANHQEDDVDLEALVNDMNASLESLYSACSMQSDTVPLLQNGQHARSQPRASGPPRSIQPQVSPRQRVQRSQPVHILAVRRLQEEDQQFRTSSLPAIPNPFPELCGPGSPPVLTPGSLPPSQAAAKQDVKVFSEDGTSKVVEILADMTARDLCQLLVYKSHCVDDNSWTLVEHHPHLGLERCLEDHELVVQVESTMASESKFLFRKNYAKYEFFKNPMNFFPEQMVTWCQQSNGSQTQLLQNFLNSSSCPEIQGFLHVKELGKKSWKKLYVCLRRSGLYCSTKGTSKEPRHLQLLADLEDSNIFSLIAGRKQYNAPTDHGLCIKPNKVRNETKELRLLCAEDEQTRTCWMTAFRLLKYGMLLYQNYRIPQQRKALLSPFSTPVRSVSENSLVAMDFSGQTGRVIENPAEAQSAALEEGHAWRKRSTRMNILGSQSPLHPSTLSTVIHRTQHWFHGRISREESHRIIKQQGLVDGLFLLRDSQSNPKAFVLTLCHHQKIKNFQILPCEDDGQTFFSLDDGNTKFSDLIQLVDFYQLNKGVLPCKLKHHCIRVAL
B2: CDH5 (protein, UniProt P33151 48-784, looked up)
Cadherin-5: DWIWNQMHIDEEKNTSLPHHVGKIKSSVSRKNAKYLLKGEYVGKVFRVDAETGDVFAIERLDRENISEYHLTAVIVDKDTGENLETPSSFTIKVHDVNDNWPVFTHRLFNASVPESSAVGTSVISVTAVDADDPTVGDHASVMYQILKGKEYFAIDNSGRIITITKSLDREKQARYEIVVEARDAQGLRGDSGTATVLVTLQDINDNFPFFTQTKYTFVVPEDTRVGTSVGSLFVEDPDEPQNRMTKYSILRGDYQDAFTIETNPAHNEGIIKPMKPLDYEYIQQYSFIVEATDPTIDLRYMSPPAGNRAQVIINITDVDEPPIFQQPFYHFQLKENQKKPLIGTVLAMDPDAARHSIGYSIRRTSDKGQFFRVTKKGDIYNEKELDREVYPWYNLTVEAKELDSTGTPTGKESIVQVHIEVLDENDNAPEFAKPYQPKVCENAVHGQLVLQISAIDKDITPRNVKFKFILNTENNFTLTDNHDNTANITVKYGQFDREHTKVHFLPVVISDNGMPSRTGTSTLTVAVCKCNEQGEFTFCEDMAAQVGVSIQAVVAILLCILTITVITLLIFLRRRLRKQARAHGKSVPEIHEQLVTYDEEGGGEMDTTSYDVSVLNSVRRGGAKPPRPALDARPSLYAQVQKPPRHAPGAHGGPGEMAAMIEVKKDEADHDGDGPPYDTLHIYGYEGSESIAESLSSLGTDSSDSDVDYDFLNDWGPRFKMLAELYGSDPREELLY
B3: CTNND1 (protein, UniProt O60716 1-968, looked up)
Catenin delta-1: MDDSEVESTASILASVKEQEAQFEKLTRALEEERRHVSAQLERVRVSPQDANPLMANGTLTRRHQNGRFVGDADLERQKFSDLKLNGPQDHSHLLYSTIPRMQEPGQIVETYTEEDPEGAMSVVSVETSDDGTTRRTETTVKKVVKTVTTRTVQPVAMGPDGLPVDASSVSNNYIQTLGRDFRKNGNGGPGPYVGQAGTATLPRNFHYPPDGYSRHYEDGYPGGSDNYGSLSRVTRIEERYRPSMEGYRAPSRQDVYGPQPQVRVGGSSVDLHRFHPEPYGLEDDQRSMGYDDLDYGMMSDYGTARRTGTPSDPRRRLRSYEDMIGEEVPSDQYYWAPLAQHERGSLASLDSLRKGGPPPPNWRQPELPEVIAMLGFRLDAVKSNAAAYLQHLCYRNDKVKTDVRKLKGIPVLVGLLDHPKKEVHLGACGALKNISFGRDQDNKIAIKNCDGVPALVRLLRKARDMDLTEVITGTLWNLSSHDSIKMEIVDHALHALTDEVIIPHSGWEREPNEDCKPRHIEWESVLTNTAGCLRNVSSERSEARRKLRECDGLVDALIFIVQAEIGQKDSDSKLVENCVCLLRNLSYQVHREIPQAERYQEAAPNVANNTGPHAASCFGAKKGKDEWFSRGKKPIEDPANDTVDFPKRTSPARGYELLFQPEVVRIYISLLKESKTPAILEASAGAIQNLCAGRWTYGRYIRSALRQEKALSAIADLLTNEHERVVKAASGALRNLAVDARNKELIGKHAIPNLVKNLPGGQQNSSWNFSEDTVISILNTINEVIAENLEAAKKLRETQGIEKLVLINKSGNRSEKEVRAAALVLQTIWGYKELRKPLEKEGWKKSDFQVNLNNASRSQSSHSYDDSTLPLIDRNQKSDKKPDREEIQMSNMGSNTKSLDNNYSTPNERGDHNRTLDRSGDLGDMEPLKGTTPLMQDEGQESLEEELDVLVLDDEGGQVSYPSMQKI
B4: SNX9 (protein, UniProt Q9Y5X1 1-595, looked up)
Sorting nexin-9: MATKARVMYDFAAEPGNNELTVNEGEIITITNPDVGGGWLEGRNIKGERGLVPTDYVEILPSDGKDQFSCGNSVADQAFLDSLSASTAQASSSAASNNHQVGSGNDPWSAWSASKSGNWESSEGWGAQPEGAGAQRNTNTPNNWDTAFGHPQAYQGPATGDDDDWDEDWDGPKSSSYFKDSESADAGGAQRGNSRASSSSMKIPLNKFPGFAKPGTEQYLLAKQLAKPKEKIPIIVGDYGPMWVYPTSTFDCVVADPRKGSKMYGLKSYIEYQLTPTNTNRSVNHRYKHFDWLYERLLVKFGSAIPIPSLPDKQVTGRFEEEFIKMRMERLQAWMTRMCRHPVISESEVFQQFLNFRDEKEWKTGKRKAERDELAGVMIFSTMEPEAPDLDLVEIEQKCEAVGKFTKAMDDGVKELLTVGQEHWKRCTGPLPKEYQKIGKALQSLATVFSSSGYQGETDLNDAITEAGKTYEEIASLVAEQPKKDLHFLMECNHEYKGFLGCFPDIIGTHKGAIEKVKESDKLVATSKITLQDKQNMVKRVSIMSYALQAEMNHFHSNRIYDYNSVIRLYLEQQVQFYETIAEKLRQALSRFPVM
B5: PTPN2 (protein, UniProt P17706 1-415, looked up)
Tyrosine-protein phosphatase …: MPTTIEREFEELDTQRRWQPLYLEIRNESHDYPHRVAKFPENRNRNRYRDVSPYDHSRVKLQNAENDYINASLVDIEEAQRSYILTQGPLPNTCCHFWLMVWQQKTKAVVMLNRIVEKESVKCAQYWPTDDQEMLFKETGFSVKLLSEDVKSYYTVHLLQLENINSGETRTISHFHYTTWPDFGVPESPASFLNFLFKVRESGSLNPDHGPAVIHCSAGIGRSGTFSLVDTCLVLMEKGDDINIKQVLLNMRKYRMGLIQTPDQLRFSYMAIIEGAKCIKGDSSIQKRWKELSKEDLSPAFDHSPNKIMTEKYNGNRIGLEEEKLTGDRCTGLSSKMQDTMEENSESALRKRIREDRKATTAQKVQQMKQRLNENERKRKRWLYWQPILTKMGFMSVILVGAFVGWTLFFQQNAL
B6: CAV1 (protein, UniProt Q03135 2-178, looked up)
Caveolin-1: SGGKYVDSEGHLYTVPIREQGNIYKPNNKAMADELSEKQVYDAHTKEIDLVNRDPKHLNDDVVKIDFEDVIAEPEGTHSFDGIWKASFTTFTVTKYWFYRLLSALFGIPMALIWGIYFAILSFLHIWAVVPCIKSFLIEIQCISRVYSIYVHTVCDPLFEAVGKIFSNVRINLQKEI
B7: MAPK8IP2 (protein, UniProt Q13387 1-824, looked up)
C-Jun-amino-terminal …: MADRAEMFSLSTFHSLSPPGCRPPQDISLEEFDDEDLSEITDDCGLGLSYDSDHCEKDSLSLGRSEQPHPICSFQDDFQEFEMIDDNEEEDDEDEEEEEEEEEGDGEGQEGGDPGSEAPAPGPLIPSPSVEEPHKHRPTTLRLTTLGAQDSLNNNGGFDLVRPASWQETALCSPAPEALRELPGPLPATDTGPGGAQSPVRPGCDCEGNRPAEPPAPGGTSPSSDPGIEADLRSRSSGGRGGRRSSQELSSPGSDSEDAGGARLGRMISSISETELELSSDGGSSSSGRSSHLTNSIEEASSPASEPEPPREPPRRPAFLPVGPDDTNSEYESGSESEPDLSEDADSPWLLSNLVSRMISEGSSPIRCPGQCLSPAPRPPGEPVSPAGGAAQDSQDPEAAAGPGGVELVDMETLCAPPPPAPAAPRPGPAQPGPCLFLSNPTRDTITPLWAAPGRAARPGRACSAACSEEEDEEDDEEEEDAEDSAGSPGGRGTGPSAPRDASLVYDAVKYTLVVDEHTQLELVSLRRCAGLGHDSEEDSGGEASEEEAGAALLGGGQVSGDTSPDSPDLTFSKKFLNVFVNSTSRSSSTESFGLFSCLVNGEEREQTHRAVFRFIPRHPDELELDVDDPVLVEAEEDDFWFRGFNMRTGERGVFPAFYAHAVPGPAKDLLGSKRSPCWVERFDVQFLGSVEVPCHQGNGILCAAMQKIATARKLTVHLRPPASCDLEISLRGVKLSLSGGGPEFQRCSHFFQMKNISFCGCHPRNSCYFGFITKHPLLSRFACHVFVSQESMRPVAQSVGRAFLEYYQEHLAYACPTEDIYLE
B8: PRKCE (protein, UniProt Q02156 1-737, looked up)
Protein kinase C epsilon type: MVVFNGLLKIKICEAVSLKPTAWSLRHAVGPRPQTFLLDPYIALNVDDSRIGQTATKQKTNSPAWHDEFVTDVCNGRKIELAVFHDAPIGYDDFVANCTIQFEELLQNGSRHFEDWIDLEPEGRVYVIIDLSGSSGEAPKDNEERVFRERMRPRKRQGAVRRRVHQVNGHKFMATYLRQPTYCSHCRDFIWGVIGKQGYQCQVCTCVVHKRCHELIITKCAGLKKQETPDQVGSQRFSVNMPHKFGIHNYKVPTFCDHCGSLLWGLLRQGLQCKVCKMNVHRRCETNVAPNCGVDARGIAKVLADLGVTPDKITNSGQRRKKLIAGAESPQPASGSSPSEEDRSKSAPTSPCDQEIKELENNIRKALSFDNRGEEHRAASSPDGQLMSPGENGEVRQGQAKRLGLDEFNFIKVLGKGSFGKVMLAELKGKDEVYAVKVLKKDVILQDDDVDCTMTEKRILALARKHPYLTQLYCCFQTKDRLFFVMEYVNGGDLMFQIQRSRKFDEPRSRFYAAEVTSALMFLHQHGVIYRDLKLDNILLDAEGHCKLADFGMCKEGILNGVTTTTFCGTPDYIAPEILQELEYGPSVDWWALGVLMYEMMAGQPPFEADNEDDLFESILHDDVLYPVWLSKEAVSILKAFMTKNPHKRLGCVASQNGEDAIKQHPFFKEIDWVLLEQKKIKPPFKPRIKTKRDVNNFDQDFTREEPVLTLVDEAIVKQINQEEFKGFSYFGEDLMP

The target in the first experiment is T1, EGFR-Wt (Homo sapiens, UniProt P00533).
T1 construct: with the advantage of testing full-length integral membrane proteins; (GGGGS)2 linker-Cub (human ubiquitin aa 35-76)-GAL4(1-147)-mNFkB(364-550) (C); expressed in transfected cells
In words: MaMTH EGFR-interactor screen, lentiviral preys against EGFR-wildtype bait (interaction score). The conditions noted are these: MaMTH interaction score of prey with EGFR-Wt bait, mean. In kind it is cell-based. The method in brief: (§1)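 5×GAL4UAS-luciferase HEK293T reporter cells were lentivirally infected with preys (MOI ~0.3-0.4) and puromycin-selected ≥48 h. They were then transfected in triplicate with the EGFR bait, and luciferase was read 24 h later. Score is fold-change over averaged negative-control preys; >1 denotes interaction.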
Take B1: the EGFR-Wt mean is 3.14.
Same read-out and setting: the figure for B2 is 2.22; for B3 it is 3.00.
With B4, the EGFR-Wt mean is 1.67.
In turn, B5 registered an EGFR-Wt mean of 1.27.
Take B6: the EGFR-Wt mean is reported as 1.86.
Still for that read-out and setting: the figure for B7 is 1.52.
Turning to B8, the EGFR-Wt mean was 6.30.

A further experiment deals with EGFR-Wt. The experiment is described as above. The conditions noted are these: ratio of EGFR-Wt mean to EGFR-L858R mean interaction score. In kind it is cell-based, human. The method in brief: as §1
In the case of B1, the Wt/L858R was determined as 0.90.
Regarding B2, the Wt/L858R is listed as 0.84.
On to B3, for which the Wt/L858R was 0.83.
Turning to B4, the Wt/L858R is 0.88.
In the case of B5, the Wt/L858R is on record as 0.93.
Same read-out and setting: the figure for B6 is 0.87; for B7 it is 0.93.
On the same count and under the same terms, the figure for B8 is 0.93.

The next experiment has as its target T2, EGFR-L858R (Homo sapiens, UniProt P00533, L858R).
T2 construct: with the advantage of testing full-length integral membrane proteins; (GGGGS)2 linker-Cub (human ubiquitin aa 35-76)-GAL4(1-147)-mNFkB(364-550) (C); expressed in transfected cells
The experiment is described as follows: MaMTH EGFR-interactor screen, lentiviral preys against EGFR-L858R bait (interaction score). It is filed as cell-based. The conditions noted are these: MaMTH interaction score of prey with EGFR-L858R bait. Summed up: as §1
Consider B1, for which the EGFR-L858R mean is listed as 3.49.
Molecule B2 gave an EGFR-L858R mean of 2.63.
Same read-out and setting: the figure for B3 is 3.63.
Consider B4, for which the EGFR-L858R mean is 1.89.
Molecule B5 had an EGFR-L858R mean of 1.36.
The same measure, in the same setting: the figure for B6 is 2.14; for B7 it is 1.63; for B8 it is 6.77.
